# Data from patent US20120114652A1 (AbbVie / Abbott, published 2012).
# Numbering of substitutions follows the chain as printed.
# B1: Antibody 11, scFv (scFv, V domains shown)
# VH: QVQLQQSGAEVKKPGSSVKVSCKASGGTFSSYAISWMRQAPGQGLEWMGGIIPIFGTANYAQKFQGRVTITADESTSTAYMELSGLRSEDTAVYYCAREKRQWLEGHFDYWGRGTPVTVSS
# VL: DIQMIQSPSFLSASTGDRVTITCQASEGIYHELAWYQQKPGKAPKLLIYRASSLASGAPSRFSGSGSGTDFTLTISSLQPDDFATYYCQQYSNYPLTFGGGTKLEIK
# B2: Antibody 24, scFv (scFv, V domains shown)
# VH: B1 VH with M37V, I54T, G56V, T69S
# VL: B1 VL with I5T, T15I, Q24R, E32A
# B3: Antibody 01, scFv (scFv, V domains shown)
# VH: B1 VH with Q5V, M37V, G85S, P116L
# VL: B1 VL with I5T, F10T, T15V, Q24R, H31R, E32S, R50K, A58V, D70E, L104V
# B4: Antibody 05, scFv (scFv, V domains shown)
# VH: B1 VH with M37V, I54T, G56S, Q65R
# VL: B1 VL with I5T, T15I, Q24R, E32Q
# B5: Antibody 21, scFv (scFv, V domains shown)
# VH: B1 VH with Q1P, M37V, I54T
# VL: B1 VL with I5A, T15I, Q24R, E32N
# B6: Antibody 13, scFv (scFv, V domains shown)
# VH: B1 VH with M37V, I54T, G85D
# VL: B1 VL with I5T, T15I, Q24R, E32S
# B7: Antibody 17, scFv (scFv, V domains shown)
# VH: B1 VH with M37V, I54T
# VL: B1 VL with I5T, T15I, Q24R
# B8: Antibody 23, scFv (scFv, V domains shown)
# VH: B1 VH with M37V, I54T, G66S
# VL: B1 VL with I5T, T15I, Q24R, E32S
# B9: Antibody 07, scFv (scFv, V domains shown)
# VH: B1 VH with M37V, M48V, I54T
# VL: B1 VL with I5A, T15I, Q24R
# B10: Antibody 22, scFv (scFv, V domains shown)
# VH: B1 VH with S31G, M37V, I54T, A61S
# VL: B1 VL with I5T, P8L, T15I, Q24R, E32A
# B11: Antibody 02, scFv (scFv, V domains shown)
# VH: B1 VH with Q5V, M37V, I54T, G85S, P116L
# VL: B1 VL with I5T, F10T, T15V, Q24R, E32S, R50K, A58V, D70E, N93D, L104V
# B12: Antibody 14, scFv (scFv, V domains shown)
# VH: B1 VH with M37V, I54T, P116L
# VL: B1 VL with I5T, T15I, Q24R, E32N, L73F
# B13: Antibody 04, scFv (scFv, V domains shown)
# VH: B1 VH with Q3R, M37V, I54T, Q65R, D73N, H107R, P116L
# VL: B1 VL with I5T, T15I, V19I, Q24R, E32S, Y49H, S52T, A58T, S63G, T72A
# B14: Antibody 12, scFv (scFv, V domains shown)
# VH: B1 VH with M37V, I54T, G56P
# VL: B1 VL with I5T, T15I, Q24R, E32N
# B15: Antibody 06, scFv (scFv, V domains shown)
# VH: B1 VH with M37V, I54T
# VL: B1 VL with I5T, T15I, Q24R, G100R
# B16: Antibody 25, scFv (scFv, V domains shown)
# VH: B1 VH with M37V, I54T, K100R, R113Q
# VL: B1 VL with I5T, T15I, Q24R, G28S, R50K, D70A
# B17: Antibody 03, scFv (scFv, V domains shown)
# VH: B1 VH with M37V, I54T
# VL: B1 VL with I5T, T15I, Q24R, H31R, E32S, R50K, S77G
# B18: Antibody 19, scFv (scFv, V domains shown)
# VH: B1 VH with M37V, G56D, K100R
# VL: B1 VL with Q3R, I5T, T15I, Q24R, D70E
# B19: Antibody 26, scFv (scFv, V domains shown)
# VH: B1 VH with S16T, M37V, G85S
# VL: B1 VL with I5T, T15I, Q24R, E32T
# B20: Antibody 03, IgG4, not germlined (antibody, V domains shown)
# VH: B1 VH with M37V, I54T
# VL: B1 VL with I5T, T15I, Q24R, H31R, E32S, R50K, S77G
# B21: Antibody 10, scFv (scFv, V domains shown)
# VH: B1 VH with M37V, I54T, G85S
# VL: B1 VL with I5T, T15I, T20A, Q24R, E32S, K103R
# Legend:
# Test in all cases: cell-based or functional assay
# [1] = biological target: T1, human PAI-1, active, wild-type, non-glycosylated (E. coli-derived) (human, UniProt P05121 24-402)
# [2] = biological target: cynomolgus PAI-1 (cynomolgus, UniProt P05121 24-402 (human entry), limits assumed)
# [3] = biological target: T2, rat PAI-1 (rat, UniProt P20961 24-402)
# T2 sequence: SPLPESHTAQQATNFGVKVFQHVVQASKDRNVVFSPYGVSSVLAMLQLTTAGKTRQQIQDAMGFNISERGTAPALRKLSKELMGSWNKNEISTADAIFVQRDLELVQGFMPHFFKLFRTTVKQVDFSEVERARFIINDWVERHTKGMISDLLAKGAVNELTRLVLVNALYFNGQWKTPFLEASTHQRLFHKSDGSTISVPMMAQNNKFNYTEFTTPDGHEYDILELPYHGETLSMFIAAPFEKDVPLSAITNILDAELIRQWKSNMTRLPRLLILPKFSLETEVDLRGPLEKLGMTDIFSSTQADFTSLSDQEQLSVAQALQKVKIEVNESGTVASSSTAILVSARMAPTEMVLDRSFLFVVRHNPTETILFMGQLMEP
# [4] = biological target: T3, mouse PAI-1 (mouse, UniProt P22777 24-401)
# T3 sequence: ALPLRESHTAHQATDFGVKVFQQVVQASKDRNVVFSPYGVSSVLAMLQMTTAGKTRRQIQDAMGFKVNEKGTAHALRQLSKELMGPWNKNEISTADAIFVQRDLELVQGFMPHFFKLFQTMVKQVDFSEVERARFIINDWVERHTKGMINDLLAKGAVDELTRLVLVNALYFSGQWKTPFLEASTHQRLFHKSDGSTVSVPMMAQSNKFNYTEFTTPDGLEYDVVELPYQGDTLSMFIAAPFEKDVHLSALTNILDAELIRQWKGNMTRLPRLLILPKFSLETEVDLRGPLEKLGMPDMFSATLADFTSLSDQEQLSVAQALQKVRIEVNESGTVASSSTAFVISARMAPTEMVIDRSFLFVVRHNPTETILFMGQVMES
# [5] = biological target: T1, human PAI-1, active, wild-type, …; remark: listed apart in the source
# [6] = biological target: T3, mouse PAI-1; remark: listed apart in the source
# [7] = biological target: T2, rat PAI-1; remark: listed apart in the source
Binder,IC50 chromogenic [1],IC50 chromogenic [2],IC50 ratio cyno/human [2],IC50 chromogenic [3],IC50 ratio rat/human [3],IC50 chromogenic [4],IC50 ratio mouse/human [4],IC50 HT-1080 Exo PAI-1 [5],IC50 HT-1080 Exo PAI-1 [6],IC50 HT-1080 Exo PAI-1 [7]
B1,102 nM,43.8 nM,0.4,59.5 nM,0.6,33.6 nM,0.3,,,
B2,3.2 nM,1.1 nM,0.3,127 nM,39.3,140 nM,43.3,,,
B3,3.4 nM,1.2 nM,0.4,208 nM,60.5,28.3 nM,8.2,23.9 nM,34.5 nM,
B4,5 nM,0.5 nM,0.1,860 nM,172,718 nM,144,,,
B5,4.1 nM,1.6 nM,0.4,49.2 nM,12,32.2 nM,7.9,,,
B6,2.9 nM,1.2 nM,0.4,140 nM,48.6,247 nM,85.8,,,
B7,71.5 nM,41.5 nM,0.6,24.9 nM,0.3,26.2 nM,0.4,,,
B8,1.6 nM,0.5 nM,0.3,376 nM,229,376 nM,229,,,
B9,187 nM,117 nM,0.6,91 nM,0.5,143 nM,0.8,,,
B10,5 nM,1.5 nM,0.3,406 nM,81.2,413 nM,82.6,,,
B11,0.6 nM,1.1 nM,1.8,530 nM,891,553 nM,929,,,
B12,,0.8 nM,,23.1 nM,,,,28 nM,22 nM,52 nM
B13,6.6 nM,2.1 nM,0.3,340 nM,51.4,264 nM,39.9,,,
B14,2.3 nM,0.6 nM,0.3,78.2 nM,34.4,27.8 nM,12.2,,,
B15,74.6 nM,31.6 nM,0.4,37.1 nM,0.5,48.2 nM,0.6,,,
B16,13.1 nM,4.6 nM,0.4,322 nM,24.6,172 nM,13.1,,,
B17,1.8 nM,0.1 nM,0.1,297 nM,165,54.9 nM,30.5,,,
B18,26 nM,10.8 nM,0.4,7.9 nM,0.3,6.4 nM,0.2,,,
B19,4 nM,1.2 nM,0.3,245 nM,61.4,211 nM,52.9,,,
B20,,0.5 nM,,,,12.9 nM,,9.5 nM,,
B21,2.2 nM,0.5 nM,0.2,296 nM,132,334 nM,149,,,
